Measurements as given in patent US20170058007A1 (University of California, published 2017).

Biological target: the molecule itself
Test: AFM imaging on mica (self-association, not fibrils)
Protocol: Pieces of 8.0 mm×8.0 mm×0.5 mm muscovite mica were cut and mounted on standard microscope slides using composite epoxy glue (5 Minute Epoxy, ITW Performance Polymers and Fluids, FL. USA). Before protein deposition, the top layer(s) of mica was peeled mechanically to expose fresh (0001) surfaces. For SBAFP-m1 or wild type WT SBAFP, 20 μl of sample in Tris buffer (100 mM, pH8.0) were deposited on the freshly exposed mica(0001) surfaces. After 5 min incubation, the surfaces were washed three times with 200 μl Tris buffer (100 mM, pH 8.0) to remove weakly bound proteins and fibrils. The samples were immediately imaged in the Tris buffer. Sample preparation for RGAFP-m1 or WT RGAFP followed similar protocols except for the surface coating and imaging medium. The freshly cleaved mica(0001) surfaces were coated with poly-L-Lysine, by dropping 80 μl 0.1% (w/v) poly-L-Lysine (Sigma P8920, MW 150-300 kDa) onto the surface, incubating for 5 min, then washing with MilliQ water. The surfaces were dried with clean air before protein deposition. The samples were imaged under ambient conditions.
The formation of fibers by SBAFP-m1 was analyzed after 48 h and 3 weeks of incubation at 37° C. […] The expansion (FIG. 10A inset) allows an accurate height determination of 1.5-3 nm, but predominantly between 2.5 and 3 nm. […]

B1: WT SBAFP (other)
chain: DGTCVNTNSQITANSQCVKSTATNCYIDNSQLVDTSICTRSQYSDANVKKSVTTDCNIDKSQVYLTTCTGSQYNGIYIRSSTTTGTSISGPGCSISTCTITRGVATPAAACKISGCSLSAM
notes: Gene in pET20b from the Davies lab, expressed in E. coli; also called wild type spruce budworm antifreeze protein; isozyme 501
- binding result: binds
